The record followed here is publication PMC7899134 (Cell, 2021).

T1: human IL-23R (1–309) (human, UniProt Q5VWK5-1 24-309)
T1 sequence (looked up): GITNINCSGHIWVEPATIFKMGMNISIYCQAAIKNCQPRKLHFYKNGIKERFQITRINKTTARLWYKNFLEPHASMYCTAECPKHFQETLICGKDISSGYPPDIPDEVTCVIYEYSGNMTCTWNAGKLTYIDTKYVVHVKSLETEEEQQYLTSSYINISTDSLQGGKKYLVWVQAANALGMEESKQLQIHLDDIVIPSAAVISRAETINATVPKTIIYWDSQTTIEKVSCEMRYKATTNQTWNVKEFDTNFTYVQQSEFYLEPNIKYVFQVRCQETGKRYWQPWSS

T2: IL-23 (IL-23p19/p40), crystallography construct (human, UniProt Q9NPF7 20-189; P29460 23-328)
T2 sequence (looked up) 1: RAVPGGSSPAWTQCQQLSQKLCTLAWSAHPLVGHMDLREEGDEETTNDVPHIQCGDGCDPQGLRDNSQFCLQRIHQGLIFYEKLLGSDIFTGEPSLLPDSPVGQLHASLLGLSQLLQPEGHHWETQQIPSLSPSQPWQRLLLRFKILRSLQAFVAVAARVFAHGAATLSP
T2 sequence (looked up) 2: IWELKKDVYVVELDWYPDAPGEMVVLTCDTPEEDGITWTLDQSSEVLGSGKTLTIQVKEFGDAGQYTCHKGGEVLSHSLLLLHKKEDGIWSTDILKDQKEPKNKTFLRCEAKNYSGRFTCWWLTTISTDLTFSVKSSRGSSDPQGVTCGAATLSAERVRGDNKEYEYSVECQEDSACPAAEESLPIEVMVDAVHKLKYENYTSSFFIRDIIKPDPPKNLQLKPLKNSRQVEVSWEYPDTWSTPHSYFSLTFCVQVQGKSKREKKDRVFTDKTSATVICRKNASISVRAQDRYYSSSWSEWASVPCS

B1: IL-23 (IL-23p19 and p40), biotinylated, SPR construct (complex)
chain 1: PAWTQCQQLSQKLCTLAWSAHPLVGHMDLREEGDEETTNDVPHIQCGDGCDPQGLRDNSQFCLQRIHQGLIFYEKLLGSDIFTGEPSLLPDSPVGQLHASLLGLSQLLQPEGHHWETQQIPSLSPSQPWQRLLLRFKILRSLQAFVAVAARVFAHGAATLSP
chain 2: T2 sequence (looked up) 2
modifications: biotin on the AviTag (BirA ligase)
B2: human IL-23p19 (28–189), T. ni expressed (natural protein, UniProt Q9NPF7 28-189, looked up)
chain: B1 chain 1
B3: IL-23 (IL-23p19 28–189 / p40 23–328 with BirA substrate peptide), T. ni expressed (complex, human)
chain 1: B1 chain 1
chain 2: T2 sequence (looked up) 2
modifications: biotinylated in vitro for the yeast staining
B4: human p40 (23–328) with BirA substrate peptide, T. ni expressed (natural protein, UniProt P29460 23-328, looked up)
chain: T2 sequence (looked up) 2
B5: human p40 (23-328), crystallography construct (natural protein)
chain: T2 sequence (looked up) 2
B6: human p40 (23–328) alone, biotinylated, SPR construct (natural protein, UniProt P29460 23-328, looked up)
chain: T2 sequence (looked up) 2
modifications: biotin on the AviTag (BirA ligase)
B7: human IL-23p19 (20-189), crystallography construct (natural protein, UniProt Q9NPF7 20-189, looked up)
chain: T2 sequence (looked up) 1
B8: human IL-23R (1–315), crystallography construct (domain or fragment, UniProt Q5VWK5-1 24-315, looked up)
chain: GITNINCSGHIWVEPATIFKMGMNISIYCQAAIKNCQPRKLHFYKNGIKERFQITRINKTTARLWYKNFLEPHASMYCTAECPKHFQETLICGKDISSGYPPDIPDEVTCVIYEYSGNMTCTWNAGKLTYIDTKYVVHVKSLETEEEQQYLTSSYINISTDSLQGGKKYLVWVQAANALGMEESKQLQIHLDDIVIPSAAVISRAETINATVPKTIIYWDSQTTIEKVSCEMRYKATTNQTWNVKEFDTNFTYVQQSEFYLEPNIKYVFQVRCQETGKRYWQPWSSLFFHKT

Assay [1] addresses T3, human IL-12Rβ1 D1–D2 (25–239) (human, UniProt P42701 25-239). Put plainly: SPR.
In assay [2] the target is T1, human IL-23R (1–309). Put plainly: cryo-EM structure.
Assay [3] deals with affi-IL-12Rβ1 D1–D5 (25–542) Tyr109Ser Gln132Leu (human, UniProt P42701 25-542, Tyr109Ser | Gln132Leu). Put plainly: cryo-EM structure.
For assay [4], the target named is T3, human IL-12Rβ1 D1–D2 (25–239). Put plainly: crystal structure.
For assay [5], the target named is affi-IL-12Rβ1 D1–D2 (25–239) Tyr109Ser Gln132Leu (human, UniProt P42701 25-239, Tyr109Ser | Gln132Leu). Put plainly: SPR.
Assay [6] concerns the target B8. Put plainly: crystal structure.
For assay [7], the target named is T2, IL-23 (IL-23p19/p40), crystallography …. Put plainly: crystal structure.
Assay [8] addresses B5. Put plainly: crystal structure.

Take B1: the binding result in assay [1] is on record as “binds”.
Consider B2, for which, in assay [2], the binding result is reported as “binds”.
In the case of B3, in assay [3], the binding result was “binds”.
For the molecule B4, the binding result in assay [3] is reported as “binds”.
B5: in assay [4], the binding result is on record as “binds”.
On to B6, for which the binding result in assay [5] and in assay [1] was “binds” throughout.
For B7, the binding result in assay [6] is “binds”.
For B8, the binding result in assay [7] and in assay [8] was “binds” in each case.
